One substance from patent publication US9575076 can be followed below.

In assay [1] the target is Chorionic Gonadotropin (CG) (UniProt P01215). In words: i-STAT sandwich cartridge, 0.4 mIU/L TSH plus CG, signal gain over TSH alone; capture 94544, detection 414B.
For assay [2], the target named is Thyroid Stimulating Hormone (TSH) (UniProt P01215). In words: FRET competition on Alexa488-labelled antigen; competitor BHQ-labelled 5409.
Assay [3] shares this target. In words: i-STAT sandwich cartridge with TSH; capture beads TSH Ab 544, detection conjugate ME130.
Assay [4] has the same target. In words: i-STAT sandwich cartridge with TSH; capture beads TSH Ab 544, detection conjugate T25C.
The target is the same in assay [5]. In words: FRET competition on Alexa488-labelled antigen; competitor BHQ-labelled 414B.
The target is the same in assay [6]. In words: i-STAT sandwich cartridge with TSH; capture beads TSH Ab 544, detection conjugate 414B.
The target is the same in assay [7]. In words: i-STAT sandwich cartridge with TSH; capture beads TSH Ab 544, detection conjugate M4.
For assay [8] the target is unchanged. In words: FRET competition on Alexa488-labelled antigen; competitor BHQ-labelled T25C.
Assay [9] shares this target. In words: FRET competition on Alexa488-labelled antigen; competitor BHQ-labelled ME130.
For assay [10], the target named is Chorionic Gonadotropin (CG) (UniProt P01215). In words: FRET quenching titration, BHQ-10 antibody and Alexa Fluor 488 antigen.
Assay [11] addresses Thyroid Stimulating Hormone (TSH) (UniProt P01215). The assay is described as above.
The target of assay [12] is Luteinizing Hormone (LH) (UniProt P01215). The assay is described as above.
Assay [13] deals with Follicle Stimulating Hormone (FSH) (UniProt P01215). Described as above.
Assay [14] addresses Thyroid Stimulating Hormone (TSH) (UniProt P01215). In words: FRET competition on Alexa488-labelled antigen; competitor BHQ-labelled M4.
Assay [15] has as its target Luteinizing Hormone (LH) (UniProt P01215). In words: i-STAT sandwich cartridge, 0.4 mIU/L TSH plus LH, signal gain over TSH alone; capture 94544, detection 414B.
Assay [16] has as its target Follicle Stimulating Hormone (FSH) (UniProt P01215). In words: i-STAT sandwich cartridge, 0.4 mIU/L TSH plus FSH, signal gain over TSH alone; capture 94544, detection 414B.
Assay [17] addresses Thyroid Stimulating Hormone (TSH) (UniProt P01215). In words: i-STAT sandwich cartridge with TSH; capture beads TSH Ab 544, detection conjugate 5409.
The target is the same in assay [18]. In words: FRET competition on Alexa488-labelled antigen; competitor BHQ-labelled TSH Ab 544.

Usually Kd stands for the concentration at which binding is half-saturated. Read a low Kd as tighter binding. “TSH Ab 544 (Abbott Diagnostics Division) (antibody)”: in assay [1], the CG CR (%) was determined as 117%. The relative fluorescence in [2] is 0.96 normalized; in assay [5] it was 0.89 normalized; in assay [8], 0.71 normalized; in [9], 0.72 normalized; in assay [14], 0.92 normalized; in assay [18] it was 1 normalized. The electrochemical current in [3] is 34.9 nA; in assay [4] it was 22.4 nA; in [6], 25 nA; in [7], 0.11 nA; in assay [17], 7.98 nA. Moreover, the Kd in assay [10] is 210 nM; in assay [11], 1.31 nM; in the assay with Luteinizing Hormone (LH) [12], 1000 nM; in [13] it was 1000 nM. Further, the LH CR (%) with Luteinizing Hormone (LH) [15] came to 11.8%. For the same substance, the FSH CR (%) in [16] is 7.15%.
